Data from patent US20190169308A1 (ALLIGATOR BIOSCIENCE, published 2019).

T1: 5T4 (SPR antigen) (UniProt Q13641 32-355, limits assumed, biotinylated on the MASS-1 platform)
T1 construct: also called biotinylated 5T4
T1 sequence (looked up): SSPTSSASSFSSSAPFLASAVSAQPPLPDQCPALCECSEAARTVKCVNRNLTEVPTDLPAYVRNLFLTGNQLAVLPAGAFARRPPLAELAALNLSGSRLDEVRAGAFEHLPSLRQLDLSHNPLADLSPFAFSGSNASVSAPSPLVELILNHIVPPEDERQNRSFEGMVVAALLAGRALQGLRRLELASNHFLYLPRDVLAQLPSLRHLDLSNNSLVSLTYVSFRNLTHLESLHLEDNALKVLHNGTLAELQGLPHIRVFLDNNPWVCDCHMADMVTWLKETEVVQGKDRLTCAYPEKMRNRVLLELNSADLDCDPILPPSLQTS


Assays:
[1] = biological target: T2, human/mouse 5T4 chimera E5; experiment: flow cytometry, cells with human/mouse 5T4 chimera
T2 construct: on transfected CHO cells
Method: (§1) Epitope mapping was performed by investigation of loss of binding by the antibodies using a panel of human/mouse chimeric 5T4 constructs by flow cytometry. […] Two strategies were used for the epitope mapping as illustrated in FIG. 5. In one approach, seven human/mouse 5T4 chimeras were constructed based on dividing 5T4 into seven different domains (FIG. 5). By replacing each domain with the corresponding mouse sequence seven human/mouse 7 5T4 human/mouse chimeras were generated. The chimeras were generated using the human protein 5T4 sequence NP_006661.1 (reference mRNA sequence NM_006670.4) and the corresponding mouse sequence NP_035757.2 (reference mRNA sequence NM_011627.4). The human/mouse chimeric DNA constructs, as well as human and mouse wild-type 5T4, were cloned into pcDNA3.1 expression vectors. […] As controls human 5T4 and mouse 5T4-transfected cells were used. For flow cytometric analysis, cells were stained with different 5T4 antibodies diluted in FACS buffer (PBS, 0.5% BSA). […] Samples were analysed by FACSverse (BD Biosciences, Heidelberg, Germany) and % positive cells were determined. To compensate for variations in % 5T4 positive cells in the various transfected populations, binding levels were normalized within each chimera by dividing % positive cells for each clone with % positive cells for the clones resulting in the highest % positive cells (% pos cellscloneX/% positive cellsₘₐₓ). A normalized value ≤0.75 was defined as mAb binding being dependent on the replaced region, whereas a normalized value ≤0.25 was defined as complete dependence.

[2] = biological target: T3, human/mouse 5T4 chimera E6; experiment: flow cytometry, cells with human/mouse 5T4 chimera
T3 construct: on transfected CHO cells
Method: as §1

[3] = biological target: T4, human/mouse 5T4 chimera E4; experiment: flow cytometry, cells with human/mouse 5T4 chimera
T4 construct: on transfected CHO cells
Method: as §1

[4] = biological target: T5, human/mouse 5T4 chimera E1; experiment: flow cytometry, cells with human/mouse 5T4 chimera
T5 construct: on transfected CHO cells
Method: as §1

[5] = biological target: T6, human/mouse 5T4 chimera E2; experiment: flow cytometry, cells with human/mouse 5T4 chimera
T6 construct: on transfected CHO cells
Method: as §1

[6] = biological target: T7, human/mouse 5T4 chimera E3; experiment: flow cytometry, cells with human/mouse 5T4 chimera
T7 construct: on transfected CHO cells
Method: as §1

[7] = biological target: T8, human/mouse 5T4 chimera E7; experiment: flow cytometry, cells with human/mouse 5T4 chimera
T8 construct: on transfected CHO cells
Method: as §1

5T4 (SPR antigen) [8] = biological target: T1, 5T4 (SPR antigen); experiment: SPR Biacore 3000, amine-coupled 5T4, mAb injected (bivalent)
Method: Binding kinetics of the 5T4-specific mAbs have been studied using two different SPR-based platforms, the Biacore 3000 (GE Healthcare) and the MASS-1 platform (Sierra Sensors). Briefly, 5T4 was captured at the sensor chip surface either via direct amine coupling (Biacore platform) or using a streptavidin coated chip and biotinylated 5T4 (MASS-1 platform). The different 5T4-specific mAbs were then injected over the chip in increasing concentrations and the association and dissociation rates studied in real time. A 1:1 Langmuir model was used for curve fitting.

5T4 (SPR antigen) [9] = biological target: T1, 5T4 (SPR antigen); experiment: SPR MASS-1, biotinylated antigen on streptavidin chip, parental mAb

Row | normalized % positive cells [1] | normalized % positive cells [2] | normalized % positive cells [3] | normalized % positive cells [4] | normalized % positive cells [5] | normalized % positive cells [6] | normalized % positive cells [7] | Kd (5T4 (SPR antigen) [8]) | koff (5T4 (SPR antigen) [8]) | kon (5T4 (SPR antigen) [8]) | Kd (5T4 (SPR antigen) [9]) | Binder
1 | 0.89 | 0.89 | 0.69 | 0.99 | 0.02 | 0.9 | 0.96 | 0.2 nM | 0.0001 s⁻¹ | 500000 M⁻¹ s⁻¹ | 0.437 nM | 1210/1211 (antibody, V domains shown) VH: not shown VL: DIQMTQSPSSLSASVGDRVTITCRASQSISSYLNWYQQKPGKAPKLLIYAASSLQSGVPSRFSGSGSGTDFTLTISSLQPEDFATYYCQQTYGYLHTFGQGTKLEIK
2 | 0.9 | 0.94 | 0.52 | 0.96 | 0.74 | 0.25 | 0.94 | 2.3 nM | 0.00028 s⁻¹ | 130000 M⁻¹ s⁻¹ | – | 1206/1207 (antibody, V domains shown) VH: EVQLLESGGGLVQPGGSLRLSCAASGFTFSGSSMSWVRQAPGKGLEWVSSIYYSGSGTYYADSVKGRFTISRDNSKNTLYLQMNSLRAEDTAVYYCARYGRNVHPYNLDYWGQGTLVTVSS VL: DIQMTQSPSSLSASVGDRVTITCRASQSISSYLNWYQQKPGKAPKLLIYAASSLQSGVPSRFSGSGSGTDFTLTISSLQPEDFATYYCQQGYYYLPTFGQGTKLEIK
